The source of these data is publication PMC2660348.

Series [1] addresses T1, Zur (FurB) (Mycobacterium smegmatis) (UniProt A0R0S1).
T1 sequence: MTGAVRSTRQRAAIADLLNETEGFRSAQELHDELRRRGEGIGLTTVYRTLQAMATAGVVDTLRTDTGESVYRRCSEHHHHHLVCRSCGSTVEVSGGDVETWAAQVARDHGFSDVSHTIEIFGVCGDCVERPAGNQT
Put plainly: EMSA.

Series [2] deals with T2, IdeR (Mycobacterium smegmatis) (UniProt A0QVZ3).
T2 sequence: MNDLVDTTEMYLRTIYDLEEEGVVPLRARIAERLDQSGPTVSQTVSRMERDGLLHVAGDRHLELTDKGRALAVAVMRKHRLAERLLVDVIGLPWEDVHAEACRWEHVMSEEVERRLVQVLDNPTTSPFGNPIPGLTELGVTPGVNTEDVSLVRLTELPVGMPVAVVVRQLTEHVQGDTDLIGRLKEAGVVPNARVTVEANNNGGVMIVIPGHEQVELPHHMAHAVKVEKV
Put plainly: EMSA.

As to “CGGGATCCCGCAACACCCTGGTCAGTGCCGCCCGCGTCTGACGGCGCACCGTTCGCGCTGCCGGCACCCCGGGCTCCATAATGAAAATCATGTTCAGTAAGCTACACTCTGCATATCGGGCTACCAACGAAATGGAGTATCGGTCATGATCTTGCCAGCCGTGCCTAAAAGCTTGGCCGCAGGGCCGAGTCGATTGGTCGCGGTCGCCTCGACAGTTAGCTTATGCAATGCTAACTTCGGGGCAAAGTTCAGGCGGATCGGCCGATGGCGGGCGTAGGTGAAGGAGACAGCGGGTACCCG (double strand) [rv0282 upstream region (pr1)]”, the binding result in series [1] and in series [2] was “binds” each time.
